From patent US20140017242A1, “ANTI-BRADYKININ B2 RECEPTOR (BKB2R) MONOCLONAL ANTIBODY” (Diamedica, Inc., priority 2010, published 2014) come the findings set out here.

Where no end group is shown, it is not given here.

Experiment [1] concerns ZDF fa/fa rats. Briefly: 21-day ZDF fa/fa study: oral glucose tolerance test (blood glucose, plasma insulin). The note with it: 10 mg/kg p.o. 1×/daily, day 21. Format: in vivo, rat. As to the method:
(§1) Animals. Male ZDF fa/fa rats were obtained from CRL (Kingston, N.Y.). Upon arrival, rats were seven weeks of age. The rats were housed individually per cage in a room with a photo cycle of 12 hours of light and 12 hours of dark and an ambient temperature of 70-72° F. and fed on regular rodent diet and water ad libitum. At the age of eleven weeks, rats were divided into six groups (Table 5) of eight rats per group based on fasting blood glucose levels. A sub-group of four rats per group was maintained in parallel to the main groups and was dosed similarly for twenty-one days for a hyperinsulinemic-euglycemic clamp study. […]
(§2) An oral glucose tolerance test (OGTT) was performed on Day 0, 7, 14 and 21 for each group of the study. Plasma samples were collected at each time point during OGTT to also measure insulin levels. Body weight, food and water intake were measured twice a week. Blood pressure and heart rates were monitored on Day 0, 7, 14 and 21 using a non-invasive tail cuff method (with five readings per rat taken and then averaged). Fasting serum samples were collected on Day 0, 7, 14 and 21 before OGTT for determination of triglyceride and total cholesterol level. Urine samples were collected on Day 7 and 14 for the determination of glycosuria. Glycated (Glycosylated) hemoglobin (HbA1c) was measured at the end of the study. Assay kits for these studies were as presented in Table 6, and were used according to the suppliers' instructions.
OGTTs were performed on Day 0, 7, 14 and Day 21. Rats were fasted overnight and fasted blood glucose levels were measured (t=0 min), and then each rat was given a single 1.5 ml dose of glucose solution (2 g/kg body weight of D-(+)-glucose (G7528, Sigma) solubilized in deionized water) administered by oral gavage. […] At each time point of an OGGT approximately 50-60 μl of blood were collected and processed for plasma to measure insulin levels.
Plasma Collection. On days 0, 7, 14 and 21 during an OGTT test, blood samples were collected from the rats at each time point (0, 15, 30, 60, 90 and 120 minutes) into tubes containing lithium heparin (BD Biosciences, USA) by tail nip and kept on ice. The samples were then centrifuged at 4° C. for plasma separation and the plasma supernatants were transferred into 0.5 ml Eppendorf™ tubes by pipette and stored at −80° C. for the analysis of insulin levels.

Experiment [2] concerns ZDF fa/fa rats. Kind of experiment: 21-day ZDF fa/fa study: fasting blood glucose. Format: in vivo, rat. The settings on record: 10 mg/kg p.o. 1×/daily, day 21; baseline 116.5+/−25.8. The method, then: as §1, §2
Fasting blood glucose levels were measured on Day 0, 7, 14 and 21.
(§3) The mean change in fasting blood glucose (mg/dL), serum cholesterol (mg/dL) and systolic blood pressure (mm Hg) from baseline (Day 0) to Day 21 was compared between the high-dose (5F12G1, 0.2 mg/kg) and negative control (MG2b-57, 0.2 mg/kg) groups using an analysis of covariance to adjust for baseline levels. The mean HbA1c percentage in high-dose (5F12G1, 0.2 mg/kg) rats was compared to the mean HbA1c percentage for negative control (MG2b-57, 0.2 mg/kg) rats using an unequal-variance, independent two-sample t-test. A significance level of a=0.05 was used for all tests, and all analyses were conducted using SAS statistical software (vs. 9.2, Cary, N.C., U.S.A.).

The test system of experiment [3] is ZDF fa/fa rats. Briefly: 21-day ZDF fa/fa study: serum total cholesterol and triglyceride. Format: in vivo, rat. The note with it: 10 mg/kg p.o. 1×/daily, day 21. As to the method:
as §1, §2, §3

Experiment [4] deals with ZDF fa/fa rats. Kind of experiment: 21-day ZDF fa/fa study: glycated hemoglobin HbA1c. Format: in vivo, rat. The note with it: 10 mg/kg p.o. 1×/daily, day 21. The method, then: as §1, §2
The mean change in fasting blood glucose (mg/dL), serum cholesterol (mg/dL) and systolic blood pressure (mm Hg) from baseline ([…]) and negative control (MG2b-57, 0.2 mg/kg) groups using an analysis of covariance to adjust for baseline levels. […] A significance level of a=0.05 was used for all tests, and all analyses were conducted using SAS statistical software (vs. 9.2, Cary, N.C., U.S.A.).

Experiment [5] concerns ZDF fa/fa rats. Kind of experiment: 21-day ZDF fa/fa study: urinary glucose (glycosuria). Format: in vivo, rat. The settings on record: 10 mg/kg p.o. 1×/daily, day 14.
For experiment [6], the target named is T1, human BKB2R-derived epitope peptide, SE ID NO:73 (Homo sapiens, UniProt P30411).
T1 construct: purchased Biosyn, Lewisville, Tex
Briefly: ForteBio Octet binding kinetics to the BKB2R epitope peptide. As to the method:
Proteins corresponding to all combinations of humanized or chimeric (5F12G1 VH and VL on human IgG2 backbone) antibodies were tested for binding to the human BKB2R-derived epitope peptide, SE ID NO:73.
A ForteBio (Menlo Park, Calif., USA) Octet® platform was used to analyze the binding affinities and binding characteristics of the humanized monoclonal antibodies to the peptide epitope (SEQ ID NO:73) and compared to the original mouse monoclonal 5F12G1. This platform employed label-free technology for measuring biomolecular interactions by optical analysis of the interference pattern of white light reflected from two surfaces: a layer of immobilized protein on the biosensor tip, and an internal reference layer. Any change in the number of molecules bound to the biosensor tip caused a shift in the interference pattern that was measured in real-time. Binding specificity, and rates of association and dissociation were monitored.
(§4) For the Octet study, antibodies were analyzed by kinetic titration of the antibodies. Antibodies were prepared in kinetic buffer (0.001 M phosphate buffered saline (NaCl 0.0138 M; KCl-0.00027 M); pH 7.4, at 25° C., 0.1 mg/ml BSA, 0.002% Tween and 0.005% Sodium Azide) followed by 1:2 serial dilutions.
(§5) Sensor Prep: Streptavidin biosensors (FortéBio Inc, Menlo Park, Calif.) were coated by incubation in a solution containing a peptide ([…]-PEG-biotin) (Biosyn, Lewisville, Tex.) at 50 μg/ml (300 seconds/1000 rpm shaking). 96 well half-volume plates were used for testing. 90 μl of sample was plated per well. Sensors were allowed to equilibrate to baseline in kinetic buffer (60 seconds/1000 rpm). The sensors were then placed into the various antibody dilutions to allow binding (association) to the probe for 500 seconds/1000 rpm, and measurements were taken. The sensors were then moved into kinetic buffer without antibody for dissociation (500 seconds/1000 rpm), and measurements were taken. Octet system software calculated kinetic constants for on rate/off rate/affinity.
[…] […] Each concentration was tested twice. The HC and LC represented the mouse original 5F12G1 VH and VL sequences.

Experiment [7] relates to ZDF fa/fa rats. Kind of experiment: Oral glucose tolerance test in ZDF fa/fa rats, humanized mAbs. Format: in vivo, rat. The note with it: 0.2 mg/kg s.c.; order: H38/L39, H37/L38, L2/H2, H38/L38, H37/L37, H38/L38, H39/137 [sic], H39/L39, H37/L37, H39/L38, H37/L39, L1/H1. An excerpt: This example describes evaluation of mouse mAb 5F12G1 and its twelve humanized clones in Zucker Diabetic fatty (ZDF fa/fa) rats for effects on insulin sensitivity in animals. Zucker Diabetic Rats develop symptoms similar to type 2 diabetes and are genetically resistant to insulin. […] Therefore, the Zucker rat is a good model to test the ability of the monoclonal antibody to increase insulin sensitivity, especially in an OGTT.
Male ZDF fa/fa rats were obtained from Charles River (Kingston, ON). Upon arrival, rats were ten weeks of age. The rats were housed individually per cage in a room with a photo cycle of 12 hours of light and 12 hours of dark and an ambient temperature of 70-72° F. and fed on regular rodent diet and water ad libitum. After seven days of acclimatization, rats were grouped into fourteen groups of three rats per group (Table 10).
Oral Glucose Tolerance Test. An oral glucose tolerance test (OGTT) was performed on overnight fasted (16 hours) rats. Rats received subcutaneously administered humanized mAbs, mouse mAb 5F12G1 (positive control) and PBS (vehicle control) at a dose of 0.2 mg/kg body weight, thirty minutes prior to glucose administration. D-Glucose was prepared in distilled water and administered orally at 2 g/kg body weight. Blood glucose levels were measured before administration of humanized mAbs, 5F12G1 or vehicle (t=−30 minutes) and just before glucose loading (0 minute), and at timepoints of 30, 60, 90 and 120 minutes, using Accu-chek™ glucose meter.

Experiment [8] has as its target T2, human BKB2R-derived epitope peptide (SEQ ID NO:73), PEG-biotin (human, also: PEG-biotin, site not given here).
T2 construct: also called immunogenic human BKB2R peptide fragment
T2 peptide: KEYSDEGHNVTAC
Kind of experiment: BLI (Octet), peptide-PEG-biotin on streptavidin sensor, antibody 250 nM. As to the method:
as §4, §5
(§6) For test humanized monoclonal antibodies, the highest concentration used was 500 nM followed by 1:2 dilutions. Each concentration was tested twice. The HC and LC represented the mouse original 5F12G1 VH and VL sequences.

The target of experiment [9] is T2, human BKB2R-derived epitope peptide …. Briefly: BLI (Octet), peptide-PEG-biotin on streptavidin sensor, antibody 500 nM. The method, then: as §4, §5, §6

Turning to `N[C@@H](CC(=O)N1CCn2c(nnc2C(F)(F)F)C1)Cc1cc(F)c(F)cc1F` [sitagliptin, reference compound], in the experiment on ZDF fa/fa rats [1], the “AUC of blood glucose during OGTT” value is 53765.75 ± 2281.45 mg/dL (min), the “blood glucose level at 30 minutes of the OGTT” value worked out at 488 mg/dL, the “blood glucose level at the start of the OGTT” value amounted to 228 mg/dL and the fasting insulin level was determined as 10 ± 3.5 ng/mL. For the same molecule, in the experiment on ZDF fa/fa rats [1], the “insulin level at 15 minutes of the OGTT” value came out at 15 ± 4 ng/mL. Also, the “fasting blood glucose level” value in the experiment on ZDF fa/fa rats [2] turned out to be 247 ± 14 mg/dL. This molecule had a serum cholesterol with ZDF fa/fa rats [3] of 170 ± 14 mg/dL. In the experiment on ZDF fa/fa rats [4], the “percent glycosylated hemoglobin A1c (HbA1c)” value is 8.8+/−0.4%. Also, the urine glucose level entry in the experiment with ZDF fa/fa rats [5] is “elevated urine glucose”.

B1: H38/L39: humanized anti-BKB2R mAb, heavy chain H38 (SEQ ID NO:6), light chain L39 (SEQ ID NO:12) (antibody, V domains shown)
VH: EVQLLESGGGLVQPGGSLKLSCAVSGFTFSDYWMSWVRQAPGKGLEWVSEIRLKSDNYATHYADSVKGRFTISRDDSKNTLYLQMNSLRAEDTAVYYCTRDYYAMEYWGQGTLVTVSS
VL: DVVMTQTPLSLSVTPGQPASISCKSSQTIVHSNGKTYLEWYLQKPGQSPQLLIYKVSNRFSGVPDRFSGSGSGTDFTLKISRVEAEDVGVYYCFQASHVPYTFGQGTKLEIK
modifications: Humanized H38 Heavy Chain Variable Region VH; Humanized L39 Light Chain Region VL
For B1, in experiment [6] (Conc. 500 nM), the “kdis” value amounted to 106 s⁻¹ and the association rate constant (kon) was 1.14e+09 M⁻¹ s⁻¹. Moreover, the “binding compared with the original mouse monoclonal antibody” value in experiment [6] (Octet, epitope peptide) is listed as “stronger binding (lower KD)”. In addition, the “order of effect on the decrease in AUC of blood glucose” value in the experiment on ZDF fa/fa rats [7] is reported as “higher”.

B2: chimeric/humanized anti-BKB2R antibody L1/HC (antibody, human IgG2, V domains shown)
VH: EVKLEESGGGLVQPGGSMKLSCVVSGFTFSDYWMSWVRHSPEMGLEWVAEIRLKSDNYATHYAESVKGRFTISRDDSKSRLYLQINSLRGEDTGIYYCTRDYYAMEYWGQGTSVTVSS
VL: DIVMTQSPLSLPVTPGEPASISCRSSQTIVHSNGKTYLEWYLQKPGQSPQLLIYKVSNRFSGVPDRFSGSGSGTDFTLKISRVEAEDVGVYYCFQASHVPYTFGQGTKLEIKR
notes: not shown: human IgG2 constant region
Turning to B2, in [8], binding was characterised by a dissociation constant (Kd) of 3.04 µM, the “Max Response” value worked out at 0.148, the koff came to 0.728 s⁻¹ and the association rate constant (kon) came to 239000 M⁻¹ s⁻¹. Moreover, in [9], the dissociation constant (Kd) came to 3.98 µM, the “Max Response” value was found to be 0.194, the off-rate (koff) was found to be 2.16 s⁻¹ and the on-rate (kon) amounted to 543000 M⁻¹ s⁻¹.

B3: chimeric/humanized anti-BKB2R antibody L2/HC (antibody, human IgG2, V domains shown)
VH: EVKLEESGGGLVQPGGSMKLSCVVSGFTFSDYWMSWVRHSPEMGLEWVAEIRLKSDNYATHYAESVKGRFTISRDDSKSRLYLQINSLRGEDTGIYYCTRDYYAMEYWGQGTSVTVSS
VL: DIVMTQSPLSLPVTPGEPASISCRSSQTIVHSNGKTYLEWYLQKPGQSPQLLIYKVSNRFSGVPDRFSGSGSGTEFTLKISRVEAEDVGVYYCFQASHVPYTFGQGTKLEIKR
notes: as for B2
B3: in [8], binding was characterised by a dissociation constant (Kd) of 0.337 µM, the “Max Response” value is 0.204, the koff was 0.732 s⁻¹ and the kon amounted to 2.17e+06 M⁻¹ s⁻¹. In addition, in experiment [9], the dissociation constant (Kd) stood at 4.53 µM, the “Max Response” value was 0.143, the dissociation rate constant (koff) is 0.655 s⁻¹ and the kon came out at 145000 M⁻¹ s⁻¹.
